Like-named read-outs stand apart in the source and are kept apart here.
Tested on: AR42J tumor-bearing mice
Conditions: male, athymic nu/nu, mouse, in vivo, iv, 0.3 nmol

## C[C@@H](O)[C@H](NC(=O)[C@@H]1CSSC[C@H](NC(=O)[C@@H](Cc2ccccc2)NC(=O)CN2CCN(CC(=O)O)CCN(CC(=O)O)CCN(CC(=O)O)CC2)C(=O)N[C@@H](Cc2ccc(O)cc2)C(=O)N[C@H](Cc2c[nH]c3ccccc23)C(=O)N[C@@H](CCCCN)C(=O)N[C@@H]([C@@H](C)O)C(=O)N1)C(=O)O [^111In-DOTATATE, metal not drawn]
10 min
  Tumor uptake: 6.3 ± 1.3 %IA/g
1 h
  Renal activity: 10.9 ± 0.6 %IA/g
  Tumor uptake: 6.0 ± 1.2 %IA/g

From paper PMC5118228 (EJNMMI Research, 2016)
